T1: APOBEC2 (Mus musculus, UniProt Q9WV35 1-224)
T1 sequence: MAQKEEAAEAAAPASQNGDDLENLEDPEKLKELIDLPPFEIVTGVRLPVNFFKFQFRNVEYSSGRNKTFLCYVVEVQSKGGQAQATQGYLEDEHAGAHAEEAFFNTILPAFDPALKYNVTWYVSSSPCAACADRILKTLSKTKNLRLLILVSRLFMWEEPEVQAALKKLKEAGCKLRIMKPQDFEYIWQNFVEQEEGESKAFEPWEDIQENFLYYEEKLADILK


Legend:
APOBEC2 [1] = molecular target: T1, APOBEC2; test: MST
SP1 = SP1 (Homo sapiens, UniProt P08047 2-785); test: EMSA
APOBEC2 [2] = molecular target: T1, APOBEC2; test: MST; remark: listed apart in the source

Chain of SP1 (P08047 2-785): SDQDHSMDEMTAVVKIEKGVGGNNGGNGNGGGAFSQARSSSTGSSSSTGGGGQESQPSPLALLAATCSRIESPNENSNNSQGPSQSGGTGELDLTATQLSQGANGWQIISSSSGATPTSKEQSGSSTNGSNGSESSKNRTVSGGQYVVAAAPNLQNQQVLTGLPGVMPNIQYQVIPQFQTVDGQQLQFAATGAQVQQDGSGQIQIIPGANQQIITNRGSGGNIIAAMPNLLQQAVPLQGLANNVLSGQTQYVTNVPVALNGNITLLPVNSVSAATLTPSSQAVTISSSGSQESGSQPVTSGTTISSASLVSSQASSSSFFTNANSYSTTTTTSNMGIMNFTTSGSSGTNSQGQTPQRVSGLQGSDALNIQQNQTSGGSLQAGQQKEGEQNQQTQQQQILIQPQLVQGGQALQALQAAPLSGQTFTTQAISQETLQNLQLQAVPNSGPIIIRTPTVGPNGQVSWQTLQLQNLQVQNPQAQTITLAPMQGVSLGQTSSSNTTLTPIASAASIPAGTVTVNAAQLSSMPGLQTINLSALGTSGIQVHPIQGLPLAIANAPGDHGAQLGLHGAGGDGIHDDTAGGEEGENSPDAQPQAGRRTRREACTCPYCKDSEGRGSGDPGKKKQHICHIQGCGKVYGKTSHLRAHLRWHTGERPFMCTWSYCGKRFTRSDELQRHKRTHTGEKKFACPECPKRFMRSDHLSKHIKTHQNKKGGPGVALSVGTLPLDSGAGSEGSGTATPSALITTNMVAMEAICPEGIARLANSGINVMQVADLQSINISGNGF

Binder | Kd (APOBEC2 [1]) [nM] | binding result (SP1) | binding result (APOBEC2 [2])
SP/KLF motif dsDNA (dsDNA) DNA 1: GGCGGCGCGGCCCCGCCCCCTCCTCCGGC DNA 2: GCCGGAGGAGGGGGCGGGGCCGCGCCGCC | 709 ± 186 | binds | 
A-tract motif dsDNA (dsDNA) DNA 1: TCTCAAGAAAAAAAAAAAAAGAC DNA 2: GTCTTTTTTTTTTTTTCTTGAGA |  |  | no binding
